Test results reported in paper PMC3017026.

Biological target: recombinant human α-synuclein (human) (UniProt P37840)

- EC50 of the loss of synaptophysin (ELISA) in mouse cortical neurons incubated 24 hours with αSN premixed with Aβ1-42 (1:50); αSN alone 500 nM: 25 nM
Substance: amyloid-β 1-42 synthetic peptide
